The values below are quoted from earlier work in article PMC7168109.

As a reminder, the Kd is the constant that tells how readily two partners part at equilibrium.

This data set addresses T1, PTK7 (tyrosine protein kinase 7, CCK4) on CCRF-CEM or Jurkat cells (UniProt Q13308).
T1 sequence: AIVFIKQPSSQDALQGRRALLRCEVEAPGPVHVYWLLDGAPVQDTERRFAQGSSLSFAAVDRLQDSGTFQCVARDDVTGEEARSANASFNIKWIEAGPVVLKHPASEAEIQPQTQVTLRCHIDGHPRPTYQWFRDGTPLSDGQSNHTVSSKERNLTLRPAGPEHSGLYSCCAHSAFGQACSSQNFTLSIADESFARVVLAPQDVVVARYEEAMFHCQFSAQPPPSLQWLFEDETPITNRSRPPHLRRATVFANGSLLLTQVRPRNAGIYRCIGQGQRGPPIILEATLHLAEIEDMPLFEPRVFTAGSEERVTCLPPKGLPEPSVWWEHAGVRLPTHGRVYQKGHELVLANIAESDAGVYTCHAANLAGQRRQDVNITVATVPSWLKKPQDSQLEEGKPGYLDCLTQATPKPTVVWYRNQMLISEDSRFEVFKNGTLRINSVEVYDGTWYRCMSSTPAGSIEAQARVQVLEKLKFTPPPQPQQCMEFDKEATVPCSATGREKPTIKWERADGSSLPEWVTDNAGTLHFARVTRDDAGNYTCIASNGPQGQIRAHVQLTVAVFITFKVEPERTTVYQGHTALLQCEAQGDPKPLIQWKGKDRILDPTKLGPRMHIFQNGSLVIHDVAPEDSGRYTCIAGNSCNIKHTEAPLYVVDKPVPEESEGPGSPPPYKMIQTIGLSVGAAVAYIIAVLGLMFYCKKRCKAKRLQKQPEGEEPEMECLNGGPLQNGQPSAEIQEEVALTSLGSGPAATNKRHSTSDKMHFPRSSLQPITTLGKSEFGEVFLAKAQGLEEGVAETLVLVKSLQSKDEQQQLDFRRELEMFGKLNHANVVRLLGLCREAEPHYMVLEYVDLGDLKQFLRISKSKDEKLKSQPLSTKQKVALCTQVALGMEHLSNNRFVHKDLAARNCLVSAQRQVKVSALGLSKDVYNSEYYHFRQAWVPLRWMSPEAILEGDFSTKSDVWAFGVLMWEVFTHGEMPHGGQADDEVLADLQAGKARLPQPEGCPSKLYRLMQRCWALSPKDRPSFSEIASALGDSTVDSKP
Nature of the data set: cited, method not stated. Conditions: Flow cytometry on whole cells: 200 nM aptamer, 4 °C, 30 min in the dark, cells washed with PBS before incubation, three washes after; binding buffer and pH not ….

Consider Sgc8 (as cited), for which the Kd was 0.8 nM.
